Results published in patent US20220249561A1.

Target: ALK 001P
Experiment: flow cytometry; CAR-T cells incubated with ALK 001P, detected with PE anti-His tag antibody and APC anti-CD3

Chain of ALK 001P (chain, as listed by the source limits assumed): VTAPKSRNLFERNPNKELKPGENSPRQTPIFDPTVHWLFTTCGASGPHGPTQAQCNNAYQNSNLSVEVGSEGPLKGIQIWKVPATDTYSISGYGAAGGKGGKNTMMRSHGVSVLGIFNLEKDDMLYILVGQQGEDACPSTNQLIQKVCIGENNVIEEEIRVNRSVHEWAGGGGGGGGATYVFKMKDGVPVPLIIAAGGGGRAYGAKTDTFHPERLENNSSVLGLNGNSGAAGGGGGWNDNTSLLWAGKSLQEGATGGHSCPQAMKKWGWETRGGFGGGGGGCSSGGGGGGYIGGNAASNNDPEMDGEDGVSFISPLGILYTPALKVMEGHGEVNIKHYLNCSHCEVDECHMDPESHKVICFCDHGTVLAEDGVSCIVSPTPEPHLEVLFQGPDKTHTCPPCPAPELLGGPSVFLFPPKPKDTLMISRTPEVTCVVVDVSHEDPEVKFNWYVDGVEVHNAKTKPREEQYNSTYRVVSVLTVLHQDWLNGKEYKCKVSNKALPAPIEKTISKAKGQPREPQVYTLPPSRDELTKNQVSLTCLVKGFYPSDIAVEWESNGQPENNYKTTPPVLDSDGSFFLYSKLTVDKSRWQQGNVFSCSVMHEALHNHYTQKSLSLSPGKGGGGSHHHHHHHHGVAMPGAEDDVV

Expression rate (% of cells positive for ALK 001P staining): 24.1%
B1: CAR 021 (FAM150BTr-28z dCH2CH3) (protein)
chain: AEAAGLGPSPEQRVEIVPRDLRMKDKFLKHLTGPLYFSPKCSKHFHRLYHNTRDCTIPAYYKRCARLLTRLAVSPVCMEDKQEPKSCDKTHTCPPCDPAEPKSPDKTHTCPFWVLVVVGGVLACYSLLVTVAFIIFWVRSKRSRLLHSDYMNMTPRRPGPTRKHYQPYAPPRDFAAYRSRVKFSRSADAPAYQQGQNQLYNELNLGRREEYDVLDKRRGRDPEMGGKPRRKNPQEGLYNELQKDKMAEAYSEIGMKGERRRGKGHDGLYQGLSTATKDTYDALHMQALPPR
